Patent US20120324602A1

Assays:
[1] = molecular target: SWIB complex BAF60b domain-containing protein (Swp73B) (Arabidopsis thaliana); assay: TAP-MS, C-terminal GS tag
[2] = molecular target: DNA-binding bromodomain-containing protein, similar to At1g20670 (AT1G76380) (Arabidopsis thaliana); assay: TAP-MS, C-terminal GS tag
[3] = molecular target: T1, actin-related protein 4 (ARP4) (Arabidopsis thaliana); assay: TAP-MS, C-terminal GS tag
T1 sequence (Q84M92 1-441, looked up): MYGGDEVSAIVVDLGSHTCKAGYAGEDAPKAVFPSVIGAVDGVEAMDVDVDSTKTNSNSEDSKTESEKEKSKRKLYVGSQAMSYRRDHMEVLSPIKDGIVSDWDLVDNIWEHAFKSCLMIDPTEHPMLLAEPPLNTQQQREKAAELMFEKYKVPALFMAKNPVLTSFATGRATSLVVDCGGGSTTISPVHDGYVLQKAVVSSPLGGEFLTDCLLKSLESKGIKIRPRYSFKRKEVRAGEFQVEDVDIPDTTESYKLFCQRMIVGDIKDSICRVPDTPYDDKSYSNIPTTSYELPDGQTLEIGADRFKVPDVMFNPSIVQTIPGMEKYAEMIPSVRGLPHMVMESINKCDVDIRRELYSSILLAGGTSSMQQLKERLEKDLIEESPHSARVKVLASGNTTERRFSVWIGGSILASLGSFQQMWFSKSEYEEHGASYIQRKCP

[4] = molecular target: SNF2 protein (BRM) (Arabidopsis thaliana); assay: TAP-MS, C-terminal GS tag
[5] = molecular target: expressed protein, similar to At4g22320 (AT5G55210) (Arabidopsis thaliana); assay: TAP-MS, C-terminal GS tag
[6] = molecular target: DNA-binding bromodomain-containing protein (AT1G20670) (Arabidopsis thaliana); assay: TAP-MS, C-terminal GS tag
[7] = molecular target: expressed protein, similar to At3g03460 (AT5G17510) (Arabidopsis thaliana); assay: TAP-MS, C-terminal GS tag
[8] = molecular target: T2, GLX1 (GLYOXALASE I HOMOLOG) (Arabidopsis thaliana); assay: TAP-MS, C-terminal GS tag
T2 sequence (O65398 2-283, looked up): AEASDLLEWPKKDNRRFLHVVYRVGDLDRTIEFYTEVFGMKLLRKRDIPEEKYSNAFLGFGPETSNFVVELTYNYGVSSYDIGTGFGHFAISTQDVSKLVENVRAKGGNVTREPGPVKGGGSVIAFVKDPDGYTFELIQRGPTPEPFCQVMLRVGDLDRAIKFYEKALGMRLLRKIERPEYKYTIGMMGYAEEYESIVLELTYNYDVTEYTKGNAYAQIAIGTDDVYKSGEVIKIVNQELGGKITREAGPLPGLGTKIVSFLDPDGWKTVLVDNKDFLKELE

[9] = molecular target: OASA1 (O-… (THIOL) LYASE (OAS-TL) ISOFORM A1) (Arabidopsis thaliana); assay: TAP-MS, C-terminal GS tag
[10] = molecular target: T3, actin-related protein 7 (ARP7) (Arabidopsis thaliana); assay: TAP-MS, C-terminal GS tag
T3 sequence (Q8L4Y5 1-363, looked up): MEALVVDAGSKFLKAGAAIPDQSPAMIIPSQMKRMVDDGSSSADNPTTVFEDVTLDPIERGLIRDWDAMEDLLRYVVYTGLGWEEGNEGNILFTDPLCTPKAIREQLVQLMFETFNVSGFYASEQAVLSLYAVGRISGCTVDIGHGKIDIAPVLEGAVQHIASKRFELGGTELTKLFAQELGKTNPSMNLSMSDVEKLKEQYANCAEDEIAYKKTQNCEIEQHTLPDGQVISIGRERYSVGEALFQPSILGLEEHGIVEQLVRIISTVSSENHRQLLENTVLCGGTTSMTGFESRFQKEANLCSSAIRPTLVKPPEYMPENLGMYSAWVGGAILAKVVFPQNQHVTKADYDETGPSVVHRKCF

[11] = molecular target: unknown, similar to At5g55210 (AT4G22320) (Arabidopsis thaliana); assay: TAP-MS, C-terminal GS tag
[12] = molecular target: Swp73A (Arabidopsis thaliana); assay: TAP-MS, C-terminal GS tag
[13] = molecular target: SWIB complex BAF60b domain-containing protein (Swp73B) (Arabidopsis thaliana); assay: TAP-MS, N-terminal GS tag
[14] = molecular target: DNA-binding bromodomain-containing protein, similar to At1g20670 (AT1G76380) (Arabidopsis thaliana); assay: TAP-MS, N-terminal GS tag
[15] = molecular target: T1, actin-related protein 4 (ARP4) (Arabidopsis thaliana); assay: TAP-MS, N-terminal GS tag
[16] = molecular target: SNF2 protein (BRM) (Arabidopsis thaliana); assay: TAP-MS, N-terminal GS tag
[17] = molecular target: expressed protein, similar to At4g22320 (AT5G55210) (Arabidopsis thaliana); assay: TAP-MS, N-terminal GS tag
[18] = molecular target: DNA-binding bromodomain-containing protein (AT1G20670) (Arabidopsis thaliana); assay: TAP-MS, N-terminal GS tag
[19] = molecular target: expressed protein, similar to At3g03460 (AT5G17510) (Arabidopsis thaliana); assay: TAP-MS, N-terminal GS tag
[20] = molecular target: T3, actin-related protein 7 (ARP7) (Arabidopsis thaliana); assay: TAP-MS, N-terminal GS tag
[21] = molecular target: unknown protein, similar to At5g17510 (AT3G03460) (Arabidopsis thaliana); assay: TAP-MS, N-terminal GS tag
[22] = molecular target: Swp73A (Arabidopsis thaliana); assay: TAP-MS, N-terminal GS tag
[23] = molecular target: CPK23 (calcium-dependent protein kinase 23) (Arabidopsis thaliana); assay: TAP-MS, N-terminal GS tag
[24] = molecular target: HIS4 (Arabidopsis thaliana); assay: TAP-MS, C-terminal GS tag
[25] = molecular target: AAC1 (ADP/ATP CARRIER 1) (Arabidopsis thaliana); assay: TAP-MS, C-terminal GS tag

B1: SWI3C-GS (protein, UniProt Q9XI07 1-807, looked up)
SWI/SNF complex subunit SWI3C: MPASEDRRGKWKRKKRGGLSAARKPKQEEEDMEEEDEENNNNNNEEMDDVENADELQQNGGATPDPGLGIGEVVEDSGSRISDFPAVVKRVVIRPHASVMAVVAAERAGLIGETRGQGSLPALENISFGQLQALSTVPADSLDLERSDGSSSAYVISPPPIMDGEGVVKRFGDLVHVLPMHSDWFAPNTVDRLERQVVPQFFSGKSPNHTPESYMEFRNAIVSKYVENPEKTLTISDCQGLVDGVDIEDFARVFRFLDHWGIINYCATAQSHPGPLRDVSDVREDTNGEVNVPSAALTSIDSLIKFDKPNCRHKGGEVYSSLPSLDGDSPDLDIRIREHLCDSHCNHCSRPLPTVYFQSQKKGDILLCCDCFHHGRFVVGHSCLDFVRVDPMKFYGDQDGDNWTDQETLLLLEAVELYNENWVQIADHVGSKSKAQCILHFLRLPVEDGLLDNVEVSGVTNTENPTNGYDHKGTDSNGDLPGYSEQGSDTEIKLPFVKSPNPVMALVAFLASAVGPRVAASCAHESLSVLSEDDRMKSEGMQGKEASLLDGENQQQDGAHKTSSQNGAEAQTPLPQDKVMAAFRAGLSAAATKAKLFADHEEREIQRLSANIVNHQLKRMELKLKQFAEIETLLMKECEQVEKTRQRFSAERARMLSARFGSPGGISPQTNNLQGMSLSTGGNNINSLMHQQHQQQQASATSQPSIIPGFSNNPQVQAQMHFMARQQQQQQQQQQQQQQAFSFGPRLPLNAIQTNAGSTASPNVMFGNNQLNNPAAAGAASINQPSFSHPMVRSSTGSGSGSGLGLN
modifications: C-terminal GS tag
Binder B1 has a C-GS (times co-purified) [1] of 2, a C-GS (times co-purified) [2] of 2 and a C-GS (times co-purified) [3] of 2. It also gave a C-GS (times co-purified) [4] of 2, a C-GS (times co-purified) [5] of 2 and a C-GS (times co-purified) [6] of 2. The C-GS (times co-purified) [7] was 2, the C-GS (times co-purified) [8] was 1 and the C-GS (times co-purified) [9] was 1. The C-GS (times co-purified) [10] was 2, the C-GS (times co-purified) [11] was 1 and the C-GS (times co-purified) [12] was 2.

B2: GS-SWI3C (protein, UniProt Q9XI07 1-807, looked up)
SWI/SNF complex subunit SWI3C: MPASEDRRGKWKRKKRGGLSAARKPKQEEEDMEEEDEENNNNNNEEMDDVENADELQQNGGATPDPGLGIGEVVEDSGSRISDFPAVVKRVVIRPHASVMAVVAAERAGLIGETRGQGSLPALENISFGQLQALSTVPADSLDLERSDGSSSAYVISPPPIMDGEGVVKRFGDLVHVLPMHSDWFAPNTVDRLERQVVPQFFSGKSPNHTPESYMEFRNAIVSKYVENPEKTLTISDCQGLVDGVDIEDFARVFRFLDHWGIINYCATAQSHPGPLRDVSDVREDTNGEVNVPSAALTSIDSLIKFDKPNCRHKGGEVYSSLPSLDGDSPDLDIRIREHLCDSHCNHCSRPLPTVYFQSQKKGDILLCCDCFHHGRFVVGHSCLDFVRVDPMKFYGDQDGDNWTDQETLLLLEAVELYNENWVQIADHVGSKSKAQCILHFLRLPVEDGLLDNVEVSGVTNTENPTNGYDHKGTDSNGDLPGYSEQGSDTEIKLPFVKSPNPVMALVAFLASAVGPRVAASCAHESLSVLSEDDRMKSEGMQGKEASLLDGENQQQDGAHKTSSQNGAEAQTPLPQDKVMAAFRAGLSAAATKAKLFADHEEREIQRLSANIVNHQLKRMELKLKQFAEIETLLMKECEQVEKTRQRFSAERARMLSARFGSPGGISPQTNNLQGMSLSTGGNNINSLMHQQHQQQQASATSQPSIIPGFSNNPQVQAQMHFMARQQQQQQQQQQQQQQAFSFGPRLPLNAIQTNAGSTASPNVMFGNNQLNNPAAAGAASINQPSFSHPMVRSSTGSGSGSGLGLN
modifications: N-terminal GS tag
B2 was tested, and the N-GS (times co-purified) [13] was 3, the N-GS (times co-purified) [14] was 2 and the N-GS (times co-purified) [15] was 3. For the same binder, the N-GS (times co-purified) [16] was 3, the N-GS (times co-purified) [17] was 2 and the N-GS (times co-purified) [18] was 3. The N-GS (times co-purified) [19] was 3, the N-GS (times co-purified) [20] was 3 and the N-GS (times co-purified) [21] was 1. For the same binder, the N-GS (times co-purified) [22] was 3 and the N-GS (times co-purified) [23] was 1.

B3: ARP7-GS (protein, UniProt Q8L4Y5 1-363, looked up)
Actin-related protein 7: MEALVVDAGSKFLKAGAAIPDQSPAMIIPSQMKRMVDDGSSSADNPTTVFEDVTLDPIERGLIRDWDAMEDLLRYVVYTGLGWEEGNEGNILFTDPLCTPKAIREQLVQLMFETFNVSGFYASEQAVLSLYAVGRISGCTVDIGHGKIDIAPVLEGAVQHIASKRFELGGTELTKLFAQELGKTNPSMNLSMSDVEKLKEQYANCAEDEIAYKKTQNCEIEQHTLPDGQVISIGRERYSVGEALFQPSILGLEEHGIVEQLVRIISTVSSENHRQLLENTVLCGGTTSMTGFESRFQKEANLCSSAIRPTLVKPPEYMPENLGMYSAWVGGAILAKVVFPQNQHVTKADYDETGPSVVHRKCF
modifications: C-terminal GS tag
B3 gave a C-GS (times co-purified) [5] of 2, a C-GS (times co-purified) [9] of 1 and a C-GS (times co-purified) [24] of 1. For the same binder, the C-GS (times co-purified) [25] was 1 and the C-GS (times co-purified) [11] was 2.
